Laboratory results: patent publication US20240270846A1 (published 2024)
Numbering of substitutions follows the chain as printed. In names and notes the source's numbering stands.

B1: GLS3000 R54W one-arm antibody (antibody, human IgG1, kappa, L234A L235A, N297A, name in Kabat numbering)
light: DIVMTQSPLSLPVTPGEPASISCRSSQSLVHSNRNTYLHWYQQKPGQAPRLLIYKVSNWFSGVPDRFSGSGSGTDFTLKISRVEAEDVGVYYCGQGTQVPYTFGQGTKLEIKRTVAAPSVFIFPPSDEQLKSGTASVVCLLNNFYPREAKVQWKVDNALQSGNSQESVTEQDSKDSTYSLSSTLTLSKADYEKHKVYACEVTHQGLSSPVTKSFNRGEC
heavy: QVQLVESGGGVVQPGRSLRLSCAASGFTFSNAWMHWVRQAPGKGLEWVAQIKAKSNNYATYYAESVKGRFTISRDDSKNSLYLQMNSLKTEDTAVYYCRYVHYGAYYGVDAWGQGTTVTVSSASTKGPSVFPLAPSSKSTSGGTAALGCLVKDYFPEPVTVSWNSGALTSGVHTFPAVLQSSGLYSLSSVVTVPSSSLGTQTYICNVNHKPSNTKVDKKVEPKSCDKTHTCPPCPAPEAAGGPSVFLFPPKPKDTLMISRTPEVTCVVVDVSHEDPEVKFNWYVDGVEVHNAKTKPREEQYASTYRVVSVLTVLHQDWLNGKEYKCKVSNKALPAPIEKTISKAKGQPREPQVYTLPPSRCELTKNQVSLSCAVKGFYPSDIAVEWESNGQPENNYKTTPPVLDSDGSFFLVSKLTVDKSRWQQGNVFSCSVMHEALHNHYTQKSLSLSPDYKDDDDK
chain: EPKSSDKTHTCPPCPAPELLGGPSVFLFPPKPKDTLMISRTPEVTCVVVDVSHEDPEVKFNWYVDGVEVHNAKTKPREEQYNSTYRVVSVLTVLHQDWLNGKEYKCKVSNKALPAPIEKTISKAKGQPREPQVCTLPPSRDELTKNQVSLWCLVKGFYPSDIAVEWESNGQPENNYKTTPPVLDSDGSFFLYSKLTVDKSRWQQGNVFSCSVMHEALHNRYTQKSLSLSP
B2: GLS3000 R77S one-arm antibody (antibody, human IgG1, kappa, L234A L235A, N297A, name in Kabat numbering)
light: B1 light with W59R, R82S
heavy: B1 heavy
chain: B1 chain
B3: GLS3000 S52P one-arm antibody (antibody, human IgG1, kappa, L234A L235A, N297A, name in Kabat numbering)
light: B1 light with S57P, W59R
heavy: B1 heavy
chain: B1 chain
B4: GLS3000 S52Q one-arm antibody (antibody, human IgG1, kappa, L234A L235A, N297A, name in Kabat numbering)
light: B1 light with S57Q, W59R
heavy: B1 heavy
chain: B1 chain
B5: GLS3000 S52Y one-arm antibody (antibody, human IgG1, kappa, L234A L235A, N297A, name in Kabat numbering)
light: B1 light with S57Y, W59R
heavy: B1 heavy
chain: B1 chain
B6: GLS3000 S56E one-arm antibody (antibody, human IgG1, kappa, L234A L235A, N297A, name in Kabat numbering)
light: B1 light with W59R, S61E
heavy: B1 heavy
chain: B1 chain
B7: GLS3000 S56F one-arm antibody (antibody, human IgG1, kappa, L234A L235A, N297A, name in Kabat numbering)
light: B1 light with W59R, S61F
heavy: B1 heavy
chain: B1 chain
B8: GLS3000 S56G one-arm antibody (antibody, human IgG1, kappa, L234A L235A, N297A, name in Kabat numbering)
light: B1 light with W59R, S61G
heavy: B1 heavy
chain: B1 chain
B9: GLS3000 S56H one-arm antibody (antibody, human IgG1, kappa, L234A L235A, N297A, name in Kabat numbering)
light: B1 light with W59R, S61H
heavy: B1 heavy
chain: B1 chain
B10: GLS3000 S56I one-arm antibody (antibody, human IgG1, kappa, L234A L235A, N297A, name in Kabat numbering)
light: B1 light with W59R, S61I
heavy: B1 heavy
chain: B1 chain
B11: GLS3000 S56K one-arm antibody (antibody, human IgG1, kappa, L234A L235A, N297A, name in Kabat numbering)
light: B1 light with W59R, S61K
heavy: B1 heavy
chain: B1 chain
B12: GLS3000 S56L one-arm antibody (antibody, human IgG1, kappa, L234A L235A, N297A, name in Kabat numbering)
light: B1 light with W59R, S61L
heavy: B1 heavy
chain: B1 chain
B13: GLS3000 S56M one-arm antibody (antibody, human IgG1, kappa, L234A L235A, N297A, name in Kabat numbering)
light: B1 light with W59R, S61M
heavy: B1 heavy
chain: B1 chain
B14: GLS3000 S56N one-arm antibody (antibody, human IgG1, kappa, L234A L235A, N297A, name in Kabat numbering)
light: B1 light with W59R, S61N
heavy: B1 heavy
chain: B1 chain
B15: GLS3000 S56P one-arm antibody (antibody, human IgG1, kappa, L234A L235A, N297A, name in Kabat numbering)
light: B1 light with W59R, S61P
heavy: B1 heavy
chain: B1 chain
B16: GLS3000 S56Q one-arm antibody (antibody, human IgG1, kappa, L234A L235A, N297A, name in Kabat numbering)
light: B1 light with W59R, S61Q
heavy: B1 heavy
chain: B1 chain
B17: GLS3000 S56R one-arm antibody (antibody, human IgG1, kappa, L234A L235A, N297A, name in Kabat numbering)
light: B1 light with W59R, S61R
heavy: B1 heavy
chain: B1 chain
B18: GLS3000 S56T one-arm antibody (antibody, human IgG1, kappa, L234A L235A, N297A, name in Kabat numbering)
light: B1 light with W59R, S61T
heavy: B1 heavy
chain: B1 chain
B19: GLS3000 S56V one-arm antibody (antibody, human IgG1, kappa, L234A L235A, N297A, name in Kabat numbering)
light: B1 light with W59R, S61V
heavy: B1 heavy
chain: B1 chain
B20: GLS3000 S56W one-arm antibody (antibody, human IgG1, kappa, L234A L235A, N297A, name in Kabat numbering)
light: B1 light with W59R, S61W
heavy: B1 heavy
chain: B1 chain
B21: GLS3000 S56Y one-arm antibody (antibody, human IgG1, kappa, L234A L235A, N297A, name in Kabat numbering)
light: B1 light with W59R, S61Y
heavy: B1 heavy
chain: B1 chain
B22: GLS3000 T31E one-arm antibody (antibody, human IgG1, kappa, L234A L235A, N297A, name in Kabat numbering)
light: B1 light with T36E, W59R
heavy: B1 heavy
chain: B1 chain
B23: GLS3000 T31I one-arm antibody (antibody, human IgG1, kappa, L234A L235A, N297A, name in Kabat numbering)
light: B1 light with T36I, W59R
heavy: B1 heavy
chain: B1 chain
B24: GLS3000 T31K one-arm antibody (antibody, human IgG1, kappa, L234A L235A, N297A, name in Kabat numbering)
light: B1 light with T36K, W59R
heavy: B1 heavy
chain: B1 chain
B25: GLS3000 T31N one-arm antibody (antibody, human IgG1, kappa, L234A L235A, N297A, name in Kabat numbering)
light: B1 light with T36N, W59R
heavy: B1 heavy
chain: B1 chain
B26: GLS3000 T31P one-arm antibody (antibody, human IgG1, kappa, L234A L235A, N297A, name in Kabat numbering)
light: B1 light with T36P, W59R
heavy: B1 heavy
chain: B1 chain
B27: GLS3000 T92A one-arm antibody (antibody, human IgG1, kappa, L234A L235A, N297A, name in Kabat numbering)
light: B1 light with W59R, T97A
heavy: B1 heavy
chain: B1 chain
B28: GLS3000 T92D one-arm antibody (antibody, human IgG1, kappa, L234A L235A, N297A, name in Kabat numbering)
light: B1 light with W59R, T97D
heavy: B1 heavy
chain: B1 chain
B29: GLS3000 T92E one-arm antibody (antibody, human IgG1, kappa, L234A L235A, N297A, name in Kabat numbering)
light: B1 light with W59R, T97E
heavy: B1 heavy
chain: B1 chain
B30: GLS3000 T92I one-arm antibody (antibody, human IgG1, kappa, L234A L235A, N297A, name in Kabat numbering)
light: B1 light with W59R, T97I
heavy: B1 heavy
chain: B1 chain
B31: GLS3000 T92L one-arm antibody (antibody, human IgG1, kappa, L234A L235A, N297A, name in Kabat numbering)
light: B1 light with W59R, T97L
heavy: B1 heavy
chain: B1 chain
B32: GLS3000 T92P one-arm antibody (antibody, human IgG1, kappa, L234A L235A, N297A, name in Kabat numbering)
light: B1 light with W59R, T97P
heavy: B1 heavy
chain: B1 chain
B33: GLS3000 T92S one-arm antibody (antibody, human IgG1, kappa, L234A L235A, N297A, name in Kabat numbering)
light: B1 light with W59R, T97S
heavy: B1 heavy
chain: B1 chain

Each binder was assayed against T1, CD3 epsilon homodimer protein (UniProt P07766 23-126) (assay: SPR Biacore T200, CD3e homodimer on chip, antibody analyte;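 also: CD3 epsilon homodimer amine-coupled on CM4 sensor chip, antibodies injected as analyte at 25 °C in HBS-EP+, ratio ≥0.8 taken as binding retained versus unaltered parent antibody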).
T1 construct: Construct of the homodimer is not described; also called CD3 (CD3 epsilon)
T1 sequence (P07766 23-126): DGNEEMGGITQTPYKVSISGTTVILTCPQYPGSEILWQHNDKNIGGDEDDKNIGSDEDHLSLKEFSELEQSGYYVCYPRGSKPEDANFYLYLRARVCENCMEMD

First: B1
Second: B2
The “ratio of amounts bound (altered form/GLS3000)” value of the first is lower: 0.78 for the first, 0.92 for the second.

Compared with B3, B4 is higher in “ratio of amounts bound (altered form/GLS3000)” value: 0.33 for the first, 1.05 for the second.

Going from B5 to B6, the “ratio of amounts bound (altered form/GLS3000)” value falls from 1.12 to 0.71.

First: B7
Second: B8
The “ratio of amounts bound (altered form/GLS3000)” value of the first is higher: 1.32 for the first, 0.92 for the second.

Going from B9 to B10, the “ratio of amounts bound (altered form/GLS3000)” value falls from 1.05 to 0.99.

Going from B11 to B12, the “ratio of amounts bound (altered form/GLS3000)” value falls from 1.46 to 1.02.

First: B13
Second: B14
The “ratio of amounts bound (altered form/GLS3000)” value of the first is higher: 1.05 for the first, 0.92 for the second.

Going from B15 to B16, the “ratio of amounts bound (altered form/GLS3000)” value rises from 0.95 to 1.04.

Going from B17 to B18, the “ratio of amounts bound (altered form/GLS3000)” value falls from 1.36 to 0.97.

First: B19
Second: B20
The “ratio of amounts bound (altered form/GLS3000)” value of the first is lower: 0.95 for the first, 1.38 for the second.

Compared with B21, B22 is lower in “ratio of amounts bound (altered form/GLS3000)” value: 1.46 for the first, 0.49 for the second.

Going from B23 to B24, the “ratio of amounts bound (altered form/GLS3000)” value rises from 0.97 to 1.04.

First: B25
Second: B26
The “ratio of amounts bound (altered form/GLS3000)” value of the first is higher: 0.32 for the first, 0.31 for the second.

Going from B27 to B28, the “ratio of amounts bound (altered form/GLS3000)” value falls from 0.63 to 0.18.

Going from B29 to B30, the “ratio of amounts bound (altered form/GLS3000)” value rises from 0.17 to 0.34.

Going from B31 to B32, the “ratio of amounts bound (altered form/GLS3000)” value falls from 0.42 to 0.26.

With B33 the “ratio of amounts bound (altered form/GLS3000)” value was 0.96.
